Test [1] addresses mixture of IL-12Rβ1_huFC and IL-23R_huFC (mixed surface) (human, UniProt P42701 24-540; Q5VWK5 24-353, limits assumed). The experiment in a line: SPR, mixed surface of IL-12Rβ1 and IL-23R.
Test [2] deals with T1, IL23R_huFC (human, UniProt Q5VWK5 24-353).
T1 sequence (looked up): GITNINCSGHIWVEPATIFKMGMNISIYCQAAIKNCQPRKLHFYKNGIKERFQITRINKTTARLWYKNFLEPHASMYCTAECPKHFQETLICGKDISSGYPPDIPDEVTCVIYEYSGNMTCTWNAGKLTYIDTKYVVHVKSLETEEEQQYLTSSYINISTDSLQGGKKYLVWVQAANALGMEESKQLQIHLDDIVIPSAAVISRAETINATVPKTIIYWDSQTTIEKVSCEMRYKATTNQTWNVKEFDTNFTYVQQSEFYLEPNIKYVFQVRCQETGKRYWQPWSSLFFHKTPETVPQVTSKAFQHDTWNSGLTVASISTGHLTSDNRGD
Description: IL23-IL23R competitive ELISA, IC50 grade.

For test [3], the target named is T1, IL23R_huFC. The experiment in a line: IL23-IL23R competitive ELISA.
Test [4] addresses T1, IL23R_huFC. The experiment in a line: IL23-IL23R competitive ELISA, IC50 grade. The source holds these as a separate data set.

Bridges are numbered along the chain shown (N, C = ends).

B1: Recombinant human IL-23 (Humanzyme) (ligand)
chain 1: RAVPGGSSPAWTQCQQLSQKLCTLAWSAHPLVGHMDLREEGDEETTNDVPHIQCGDGCDPQGLRDNSQFCLQRIHQGLIFYEKLLGSDIFTGEPSLLPDSPVGQLHASLLGLSQLLQPEGHHWETQQIPSLSPSQPWQRLLLRFKILRSLQAFVAVAARVFAHGAATLSP
chain 2: IWELKKDVYVVELDWYPDAPGEMVVLTCDTPEEDGITWTLDQSSEVLGSGKTLTIQVKEFGDAGQYTCHKGGEVLSHSLLLLHKKEDGIWSTDILKDQKEPKNKTFLRCEAKNYSGRFTCWWLTTISTDLTFSVKSSRGSSDPQGVTCGAATLSAERVRGDNKEYEYSVECQEDSACPAAEESLPIEVMVDAVHKLKYENYTSSFFIRDIIKPDPPKNLQLKPLKNSRQVEVSWEYPDTWSTPHSYFSLTFCVQVQGKSKREKKDRVFTDKTSATVICRKNASISVRAQDRYYSSSWSEWASVPCS
B1: the “fold of affinity against Compound C” value in test [1] is roughly 14 fold.

CADWVCYWHTFGAK (not fully specified; Ac-; [β-Ala]; [(D)Lys]; DIG through Lysine) [(Ac-CADWVCYWHTFG-[β-Ala]-[(D)Lys]-OH)2DIG] gave an IC50 with IL23R_huFC [2] of 25 to 100 nM.

For H-CADWVCYWHTFG-NH2 (disulfide 1-6 (inferred)) [Hy-CADWVCYWHTFG-NH2], the IC50 in the test with IL23R_huFC [3] is 500 to 1000 nM; with IL23R_huFC [4], 100 to 1000 nM.

Source of the values: patent US20190300590A1 (PROTAGONIST THERAPEUTICS, published 2019).
